The text below walks through data of paper PMC5913134, “The IL-33-PIN1-IRAK-M axis is critical for type 2 immunity in IL-33-induced allergic airway inflammation” (Nature Communications, 2018).

For the experiment, the target named is PIN1 (GST-PIN1, GFP-PIN1, 15N-PIN1-WW) (UniProt Q13526). The experiment is described as follows: co-IP with anti-GFP, blot. The settings on record: reference: wild type; sites S110.

“IRAK-M (transfected constructs and synthetic peptides) (from UniProt Q9Y616) S110A”: the “binding against the reference” value is listed as “lost”.
